Experimental data: the supplement of paper PMC9732359
± gives the uncertainty stated by the source.

experiment: protein stability index of a GFP-peptide fusion (yeast GPS) (PSI 1-4); higher = more stable; sorted into four equal gates, so the index is relative within each strain; settings: doa10∆
Outline: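 Mid-log yeast cultures in leucine-free medium, carrying a pooled plasmid library, were sorted into four equal gates by their GFP/Cherry fluorescence ratio. Each plasmid expressed Cherry along with GFP fused upstream of a tiled 17-residue yeast protein peptide. Plasmids recovered from each gate were PCR-amplified and Illumina-sequenced, with reads assigned to strains by barcodes. The protein stability index was obtained by summing each gate's read frequency weighted by its gate number.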

Row | Sequence | protein stability index
1 | MYQEWEDETVKVAQLRQ [NSL1] | 3.63 ± 0.085
2 | NADFQKPWFATVNGQAR [FAS1] | 2.41 ± 0.066
3 | NAEKYFNNGDDDDYGDE [RPC31] | 3.18 ± 0.099
4 | NAQLSCITKQDGFKIYD [PUP2] | 3.04 ± 0.16
5 | NATLTPNDSNDEKVTIL [SWI1] | 3.02 ± 0.059
6 | NDFFIIYYTPAFFHLFA [YJL039C/NUP192] | 1.41 ± 0.058
7 | NDILVLMESEREARRLR [RPS28A] | 1.56 ± 0.12
8 | NDIPLGSGQPDNDTVVT [SRB8] | 3.3 ± 0.12
9 | NDKQGFPMKQGVLLPTR [RPS6A] | 2.75 ± 0.098
10 | NDLDEDDIYDISLLKNR [RPN4] | 2.87 ± 0.12
11 | NDNDITVKENESDSKLQ [UBP6] | 3.48 ± 0.12
12 | NDNENIVNNDLPTTVVS [MED2] | 2.55 ± 0.053
13 | NDSENNSSEEDKKKGQN [ITC1] | 2.24 ± 0.073
14 | NDVQGIDDVQTIKVVKR [RPP1] | 3.08 ± 0.064
15 | NDWKLETERLISQSQLG [SIN4] | 3.42 ± 0.096
16 | NECIEERVPKTQLDKLR [SMB1] | 3.1 ± 0.051
17 | NECVCTPYNADFDGDEM [RPO31] | 3.06 ± 0.069
18 | NEGAASSNPQSAYVKAF [SMC1] | 2.62 ± 0.051
19 | NEIESRQLTSLGSKKEL [SNU114] | 3.17 ± 0.075
20 | NELLDLTESQTETYISD [RPN5] | 3.17 ± 0.073
21 | NEVSLAIKKSSMKMELL [SMC2] | 2.69 ± 0.071
22 | NEYVIKTPVFTTGGDYI [YMR129W/POM152] | 1.88 ± 0.062
23 | NEYYPMCEQALSALFTI [YCS4] | 2.2 ± 0.062
24 | NFADKYDEVKKHWGGGI [RPL8A] | 2.66 ± 0.21
25 | NFEAALFAKSSSKKEYM [GAL11] | 1.99 ± 0.085
26 | NFENDNENNSNGGEDTS [REC8] | 2.93 ± 0.2

Row | Sequence | protein stability index
27 | NFFQAPQDYVLERVKRI [YML031W/NDC1] | 2.81 ± 0.064
28 | NFGFGIDEHIDLGIKYD [RPL11A] | 2.59 ± 0.1
29 | NFLDAPGHVNFMDETAV [SNU114] | 3.26 ± 0.16
30 | NFLRLPASNILRRTTQR [YDL116W/NUP84] | 3.08 ± 0.27
31 | NFQDLSYLSETLISRIS [YML103C/NUP188] | 2.38 ± 0.082
32 | NFQISKKMDDYIHRIGR [PRP28] | 3.12 ± 0.24
33 | NFSGLNGGITNTATNAL [YOR098C/NUP1] | 3.15 ± 0.12
34 | NGFMHAGTTDNSFIKAN [RPN2] | 1.24 ± 0.055
35 | NGFSFTKFNHNKEKSNS [YOR098C/NUP1] | 2.69 ± 0.082
36 | NGGITNTATNALRPSDI [YOR098C/NUP1] | 2.63 ± 0.13
37 | NGGNSVITLAEYEKRNH [SRP68] | 3.57 ± 0.12
38 | NGIIMNGTLIGCVSYSP [YMR153W/NUP53] | 1.99 ± 0.066
39 | NGIVDQVLVTTNQDGLK [RPB2] | 2.55 ± 0.092
40 | NGLKDQLNEERSRYRRE [YIL149C/MLP2] | 2.77 ± 0.19
41 | NHFKDTYGFSILDIVIN [FAS1] | 3.41 ± 0.12
42 | NHKSKDNNNGDDDDEDD [SKP1] | 3.13 ± 0.075
43 | NIAQMIPGMSNMMNQVG [SRP54] | 2.47 ± 0.064
44 | NIETGENHNGQSISNEN [SWI3] | 2.59 ± 0.26
45 | NIGQQQVKKPRKQRVKK [SWI1] | 3.47 ± 0.12
46 | NIIEKAMDYAISIENIV [RPN12] | 3.15 ± 0.13
47 | NIKHKHTSIRETLENGE [SMC2] | 1.46 ± 0.12
48 | NILKILSSLILKIFQEQ [SRB8] | 2.17 ± 0.047
49 | NINNNINSTKNGKDNNN [MED2] | 3.28 ± 0.068
50 | NIQKKQPAKEKGVTEKD [RRP6] | 3.12 ± 0.1
51 | NISFYKLHVNWNLNATK [SIN4] | 2.43 ± 0.072
52 | NITDNLFQELSKVVDDM [GRR1] | 2.69 ± 0.067

Row | Sequence | protein stability index
53 | NIVMDSKQNGIEQSITK [SSN8] | 3.08 ± 0.16
54 | NIWLNNKIINWEISNPD [NUT1] | 2.48 ± 0.076
55 | NKKDKKKEEEEQLSEED [RPN1] | 3.55 ± 0.21
56 | NKKRPSSKKVFSSNLSY [YOR098C/NUP1] | 2.48 ± 0.073
57 | NKNIDIGLLNKSKSSLD [RPN2] | 2.37 ± 0.071
58 | NKNNNNRHNLLNDVVSF [SWI1] | 2.99 ± 0.061
59 | NKNQDAFEAELSNIPLL [ARP9] | 3.12 ± 0.098
60 | NKPIKRMLSSILDINVS [SWP82] | 2.52 ± 0.046
61 | NKRLCDEIATIQSKRLR [RPS17A] | 2.75 ± 0.081
62 | NKRLDVIDGKLPFMQNA [YDL088C/ASM4] | 2.84 ± 0.053
63 | NKSLKYVIHGIELLSDL [LIN1] | 2.81 ± 0.093
64 | NKSSVRPTGGANMATVP [MED6] | 2.69 ± 0.063
65 | NLANEQPVLEKPLKKGS [SIR4] | 2.31 ± 0.18
66 | NLDIAKDLIRTDEALFE [MED4] | 3.44 ± 0.22
67 | NLKFLKNKDSLVSNPHE [SRB4] | 2.68 ± 0.06
68 | NLLKNFISSNDAFNMLS [SNF6] | 1.61 ± 0.099
69 | NLPGNITVVLGVNGYIW [RRP4] | 2.01 ± 0.15
70 | NLPKEGDIVLTRVTRLS [CSL4] | 2.58 ± 0.13
71 | NLQKIDKDSEELDSKTR [MED4] | 2.73 ± 0.091
72 | NLQPASVINNYLREDQM [NUT1] | 2.61 ± 0.075
73 | NLQQQQQQQIQVPLQQT [YGR119C/NUP57] | 2.56 ± 0.13
74 | NLTEFVQMDKIRKIVRK [AAR2] | 2.77 ± 0.14
75 | NLTSEIEDLRADINSNR [YOR098C/NUP1] | 2.98 ± 0.27
76 | NLTYSSGLFVDVKKRTY [RPB2] | 2.31 ± 0.052
77 | NLVVSGPPQSLYGLNLT [FAS1] | 2.69 ± 0.071
78 | NLYDGAEHKYMPYTINE [BRR2] | 3.08 ± 0.071

Row | Sequence | protein stability index
79 | NLYTPKAEMPPEHLRKI [PRP8] | 2.53 ± 0.072
80 | NMVLENVKELWTEKKGK [SMD2] | 2.91 ± 0.11
81 | NNDDNGNNNNNNSGNDN [MED2] | 2.93 ± 0.043
82 | NNGLPECQVIAAEGLCK [YCG1] | 2.53 ± 0.12
83 | NNGVSNLWKNIFLSKEN [COR1] | 2.98 ± 0.082
84 | NNKIITLVKGPKEPRLK [SKI6] | 2.91 ± 0.2
85 | NNLEKYPFRYKTWLRNQ [RTT102] | 3.37 ± 0.077
86 | NNLHELWALLNFLLPDI [ISW2] | 2.59 ± 0.052
87 | NNLSSMNLDFDIEEGPI [MCD1] | 2.91 ± 0.046
88 | NNNSNNIMSASGGLFGN [YGL172W/NUP49] | 2.97 ± 0.041
89 | NNNVTAVPAATPANTNN [SWI1] | 2.79 ± 0.046
90 | NNPPKPQKPVPLNVLQD [SNF2] | 3.04 ± 0.049
91 | NNRISNANEISANTNNT [SWP82] | 2.14 ± 0.05
92 | NNRRRSRKRGGENVFLK [SIR3] | 3.6 ± 0.11
93 | NNSANNNAHSSDLGTVV [YMR153W/NUP53] | 3.03 ± 0.15
94 | NNSDDEDVDDEELDITP [IRR1] | 3.25 ± 0.099
95 | NNSKSRYPMNLLEFIID [ECM29] | 2.5 ± 0.086
96 | NNSSITLRCSVVEACGN [YCS4] | 1.78 ± 0.064
97 | NNVKQMVMAGSKGSFIN [RPO21] | 1.57 ± 0.091
98 | NNVSFNAKDIQIPVYDT [FAS1] | 2.36 ± 0.041
99 | NNYNSRIQLMNDFTTKL [MED1] | 2.89 ± 0.075
100 | NPHQDLQAQDRAHRIGQ [SNF2] | 3.03 ± 0.077
101 | NPIANHTVTNSPNPTLQ [SNF5] | 2.64 ± 0.038
102 | NPIDIKRRFGELMDRTG [RPP1] | 3.08 ± 0.12
103 | NPLKNKQVLLRLNPYAK [RPL4A] | 1.34 ± 0.17
